Measurements taken from patent US7763418B2, “Detection of Rho proteins” (Cytoskeleton, Inc., priority 2005, dated 2010).

Experiments:
[1] = test system: RhoA; experiment: GST-Rhotekin-RBD pull-down assay of calpeptin treated HeLa cell lysates; format: cell-based; details: calpeptin 30 minutes, 500 μg lysate
[2] = test system: RhoA; experiment: RhoA G-LISA of calpeptin treated HeLa cell lysates; format: cell-based; details: calpeptin 30 minutes
Experimental: Active Rho protein (typically 7-15 μg total cell lysate or 1-5 ng of constitutively active recombinant protein) were either added directly to the effector bound G-LISA plate (Rac1 and Cdc42 G-LISAs) or diluted with an equal volume of Binding Buffer (20% PEG 8000, Sigma, St. Louis, Mo.) prior to adding to effector bound plates (RhoA G-LISA). The reactions were incubated for 30 minutes at 4° C. on a microtiter titer plate shaker after which wells were washed once with 200 μl of PBST (PBS pH 7.2, 0.05% Tween-20) and immediately treated with 200 μl of Antigen Presenting Buffer (1% trichloroacetic acid (TCA)) for 2-5 minutes at room temperature. Wells were then washed three times with 200 μl each of PBST and primary antibody is added typically at 1 μg/ml (RhoA specific), 0.25 μg/ml (Rac1 specific), 1 μg/ml (Cdc42 specific) and incubated at room temperature for 45 minutes (incubation at 4° C. gave similar results). […] After three washes each of 200 μl PBST the activated Rho proteins are detected using absorbance or luminescence detection as described below. […]
Referring to FIG. 10, 25 μl of serum starved or Calpeptin treated (RhoA activated) Hela cell lysate at concentration of 4, 2, 1, 0.5, 0.25, 0.12, 0.06 mg/ml were mixed with same volume of Binding Buffer and subjected to RhoA G-LISA assay followed by absorbance detection. […] All readings had buffer only background subtracted. […]

[3] = target: T1, RhoA (63L) (Homo sapiens, UniProt P61586, Q63L); experiment: G-LISA on effector-GBD plates with constitutively active RhoA; format: binding; details: 5 ng constitutively active RhoA; detection with the plate's GTPase specific antibody
T1 construct: purchased Cytoskeleton Inc. R6301
T1 sequence (P61586 whole entry Q63L): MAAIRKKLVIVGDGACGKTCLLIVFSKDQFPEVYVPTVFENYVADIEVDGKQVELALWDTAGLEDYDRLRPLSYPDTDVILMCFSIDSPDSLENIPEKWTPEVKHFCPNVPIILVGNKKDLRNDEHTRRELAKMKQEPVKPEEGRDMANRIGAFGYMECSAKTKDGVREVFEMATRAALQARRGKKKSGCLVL
Experimental: (§1) Effector-GBD peptide (ROCK1, POSH or WASP, see Table 2) was diluted in coating buffer (PBS pH 7.2, plus 1 mM EDTA) to a final concentration 0.05 mg/ml and 5 μg of peptide was added to the wells of maleimide plates (Corning Inc., Catalog #2510). Plates were incubated at 21° C. for 2 hours, washed twice in PBS pH 7.2. Plates were blocked for 1 hour at room temperature with milk (typically 0.1-5%, depending upon effector-GBD). After two washes with PBS (pH 7.2), Lyophilization Buffer was added to each well (5% sucrose and 1% dextran) and the plates were lyophilized and stored desiccated at 4° C. […]
(§2) Active Rho protein (typically 7-15 μg total cell lysate or 1-5 ng of constitutively active recombinant protein) were either added directly to the effector bound G-LISA plate (Rac1 and Cdc42 G-LISAs) or diluted with an equal volume of Binding Buffer (20% PEG 8000, Sigma, St. Louis, Mo.) prior to adding to effector bound plates (RhoA G-LISA). […] After three washes each of 200 μl PBST the activated Rho proteins are detected using absorbance or luminescence detection as described below.
Referring to FIG. 2A, lysis buffer only (Blank), 5 ng of RhoA (63L), Cdc42 (61L) or Rac1 (61L) were subjected to a RhoA G-LISA assay as detailed in materials and methods, and RhoA signal was detected by luminometry as described in materials and methods. […]

[4] = target: T2, Rac1 (61L) (Homo sapiens, UniProt P63000, Q61L); experiment: G-LISA on effector-GBD plates with constitutively active Rac1; format: binding; details: 5 ng constitutively active Rac1; detection with the plate's GTPase specific antibody
T2 construct: His; purchased Cytoskeleton Inc. R6101
Experimental: as §1, §2
Referring to FIG. 2B, lysis buffer only (Blank), 5 ng of Rac1 (61L), or RhoA (63L) were subjected to a Rac1 G-LISA assay as detailed in materials and methods (Example 2), and Rac1 signal was detected by absorbance at 490 nm as described in materials and methods (Example 2). […]

[5] = target: T3, Cdc42 (61L) (Homo sapiens, UniProt P60953, Q61L); experiment: G-LISA on effector-GBD plates with constitutively active Cdc42; format: binding; details: 5 ng constitutively active Cdc42; detection with the plate's GTPase specific antibody
T3 construct: His; purchased Cytoskeleton Inc. C6101
T3 sequence (P60953 whole entry Q61L): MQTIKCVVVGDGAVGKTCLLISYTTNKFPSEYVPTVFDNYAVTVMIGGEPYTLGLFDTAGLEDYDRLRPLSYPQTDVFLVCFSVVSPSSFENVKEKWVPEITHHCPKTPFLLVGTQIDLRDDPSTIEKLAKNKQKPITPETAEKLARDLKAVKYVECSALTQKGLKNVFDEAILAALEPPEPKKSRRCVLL
Experimental: as §1, §2
Referring to FIG. 2C, lysis buffer only (Blank), 5 ng of Cdc42 (61L) or Rac1 (61L) were subjected to a Cdc42 G-LISA assay as detailed in materials and methods (Example 2), and Cdc42 signal was detected by absorbance at 490 nm as described in materials and methods (Example 2).

[6] = target: Rac1 (Homo sapiens, UniProt P63000); details: read-out: published affinity Rac1:PAK; cited from earlier work

## CCCC[C@@H](C=O)NC(=O)[C@H](CC(C)C)NC(=O)OCc1ccccc1 [calpeptin]
[1]
  RhoA fold activation above serum starved lysate, pull-down densitometry: approximately 2 fold
[2]; lysate 0.25 mg/ml to 2 mg/ml (6.25-50 μg)
  RhoA fold activation versus serum starved, G-LISA: approximately 2 fold
[2]; lysate 4 mg/ml (100 μg)
  RhoA fold activation versus serum starved, G-LISA: 1.7 fold

B1: POSH: Histidine-tagged GBD of human POSH (amino acids 291-363) linked to maleimide plate (protein, UniProt Q7Z6J0 1-888, looked up)
E3 ubiquitin-protein ligase …: MDESALLDLLECPVCLERLDASAKVLPCQHTFCKRCLLGIVGSRNELRCPECRTLVGSGVEELPSNILLVRLLDGIKQRPWKPGPGGGSGTNCTNALRSQSSTVANCSSKDLQSSQGGQQPRVQSWSPPVRGIPQLPCAKALYNYEGKEPGDLKFSKGDIIILRRQVDENWYHGEVNGIHGFFPTNFVQIIKPLPQPPPQCKALYDFEVKDKEADKDCLPFAKDDVLTVIRRVDENWAEGMLADKIGIFPISYVEFNSAAKQLIEWDKPPVPGVDAGECSSAAAQSSTAPKHSDTKKNTKKRHSFTSLTMANKSSQASQNRHSMEISPPVLISSSNPTAAARISELSGLSCSAPSQVHISTTGLIVTPPPSSPVTTGPSFTFPSDVPYQAALGTLNPPLPPPPLLAATVLASTPPGATAAAAAAGMGPRPMAGSTDQIAHLRPQTRPSVYVAIYPYTPRKEDELELRKGEMFLVFERCQDGWFKGTSMHTSKIGVFPGNYVAPVTRAVTNASQAKVPMSTAGQTSRGVTMVSPSTAGGPAQKLQGNGVAGSPSVVPAAVVSAAHIQTSPQAKVLLHMTGQMTVNQARNAVRTVAAHNQERPTAAVTPIQVQNAAGLSPASVGLSHHSLASPQPAPLMPGSATHTAAISISRASAPLACAAAAPLTSPSITSASLEAEPSGRIVTVLPGLPTSPDSASSACGNSSATKPDKDSKKEKKGLLKLLSGASTKRKPRVSPPASPTLEVELGSAELPLQGAVGPELPPGGGHGRAGSCPVDGDGPVTTAVAGAALAQDAFHRKASSLDSAVPIAPPPRQACSSLGPVLNESRPVVCERHRVVVSYPPQSEAELELKEGDIVFVHKKREDGWFKGTLQRNGKTGLFPGSFVENI
[3]
  G-LISA signal above background (buffer only): barely above background

B2: rhotekin-Cys: synthetic rhotekin-GBD, three internal cysteines replaced, cysteine at carboxy terminal (protein)
chain: ILEDLNMLYIRQMALSLEDTELQRKLDHEIRMRDGAEKLLAALSQREQALEATKSLLVSNSRILSYMGELQRRKEAQVLEKTGRRCS
[3]
  G-LISA signal above background (buffer only): 6 fold

B3: ROCK1-GBD: Histidine-tagged GBD of human ROCK1 (amino acids 847-1024), carboxy terminal cysteine, linked to maleimide plate (protein)
chain: EAEQYFSTLYKTQVKELKEEIEEKNRENLKKIQELQNEKETLATQLDLAETKAESEQLARGLLEEQYFELTQESKKAASRNRQEITDKDHTVSRLEEANSMLTKDIEILRRENEELTEKMKKAEEEYKLEKEEEISNLKAAFEKNINTERTLKTQAVNKLAEIMNRKDFKIDRKKANTC
modifications: left off: small tags and cut ends
[4]
  G-LISA signal above background (buffer only): did not give a signal above background
[5]
  G-LISA signal above background (buffer only): did not give a signal above background

B4: PAK-GST: GST-tagged GTPase Binding Domain of human PAK1 (amino acids 68-151), Rac1/Cdc42 effector (protein)
chain: KEKERPEISLPSDFEHTIHVGFDAVTGEFTGMPEQWARLLQTSNITKSEQKKNPQAVLDVLEFYNSKKTSNSQKYMSFTDKSAEC
modifications: left off: a dimerising Fc or GST
[6]
  Kd: ~20 nM

B5: WASP: Histidine-tagged GBD of human WASP (amino acids 201-321), carboxy terminal cysteine, linked to maleimide plate (protein)
chain: DIQNPDITSSRYRGLPAPGPSPADKKRSGKKKISKADIGAPSGFKHVSHVGWDPQNGFDVNNLDPDLRSLFSRAGISEAQLTDAETSKLIYDFIEDQGGLEAVRQEMRRQEPLPPPPPPSRC
modifications: left off: small tags and cut ends
notes: Histidine-tagged GBD of human WASP (amino acids 201-321), carboxy terminal cysteine, linked to maleimide plate
[4]
  G-LISA signal above background (buffer only): did not give a signal above background
